Each block holds one binder with its values, some of them ahead of it.
B2: ATG9A (mouse, endogenous in BMDMs) (other, UniProt Q68FE2 2-839, looked up)
chain: AQFDTEYQRLEASYSDSPPGEEDLLVHVAEGSKSPWHHIENLDLFFSRVYNLHQKNGFTCMLIGEMFELMQFLFVVAFTTFLVSCVDYDILFANKMVNHSLHPTEPVKVTLPDAFLPAQVCSARIQENGSLITILVIAGVFWIHRLIKFIYNICCYWEIHSFYLHALRIPMSALPYCTWQEVQARIVQTQKEHQICIHKRELTELDIYHRILRFQNYMVALVNKSLLPLRFRLPGLGEVVFFTRGLKYNFELILFWGPGSLFLNEWSLKAEYKRGGQRLELAQRLSNRILWIGIANFLLCPLILIWQILYAFFSYAEVLKREPGALGARCWSLYGRCYLRHFNELEHELQSRLNRGYKPASKYMNCFLSPLLTLLAKNGAFFAGSILAVLIALTIYDEDVLAVEHVLTTVTLLGVTVTVCRSFIPDQHMVFCPEQLLRVILAHIHYMPDHWQGNAHRSQTRDEFAQLFQYKAVFILEELLSPIVTPLILIFCLRPRALEIIDFFRNFTVEVVGVGDTCSFAQMDVRQHGHPQWLSGGQTEASVYQQAEDGKTELSLMHFAITNPGWQPPRESTAFLGFLKEQVQRDGAAAGLAQGGLLPENALFTSIQSLQSESEPLSLIANVVAGSSCRGPSLSRDLQGSRHRADVASALRSFSPLQPGAAPQGRVPSTMTGSGVDARTASSGSSVWEGQLQSLVLSEYASTEMSLHALYMHQLHKQQTQAEPERHVWHRRESDESGESAPEEGGEGARAPQPIPRSASYPCATPRPGAPETTALHGGFQRRYGGITDPGTVPRGPSHFSRLPLGGWAEDGQPASRHPEPVPEEGSEDELPPQVHKV
notes: Endogenous protein in mouse BMDM lysates

How the values were obtained:
ATG9A (human) [1] = target: T1, ATG9A (human) (human, UniProt Q7Z3C6 1-839); test: endogenous co-IP; WT and BECN2 KO THP-1 cell lysates immunoprecipitated with ATG9A antibodies, immunoblot (FIG. 32D)
T1 construct: Transmembrane protein; co-IP from RIPA lysates; Tagged and endogenous human forms kept under one id; also called Flag-ATG9A; HA-ATG9A
T1 sequence (looked up): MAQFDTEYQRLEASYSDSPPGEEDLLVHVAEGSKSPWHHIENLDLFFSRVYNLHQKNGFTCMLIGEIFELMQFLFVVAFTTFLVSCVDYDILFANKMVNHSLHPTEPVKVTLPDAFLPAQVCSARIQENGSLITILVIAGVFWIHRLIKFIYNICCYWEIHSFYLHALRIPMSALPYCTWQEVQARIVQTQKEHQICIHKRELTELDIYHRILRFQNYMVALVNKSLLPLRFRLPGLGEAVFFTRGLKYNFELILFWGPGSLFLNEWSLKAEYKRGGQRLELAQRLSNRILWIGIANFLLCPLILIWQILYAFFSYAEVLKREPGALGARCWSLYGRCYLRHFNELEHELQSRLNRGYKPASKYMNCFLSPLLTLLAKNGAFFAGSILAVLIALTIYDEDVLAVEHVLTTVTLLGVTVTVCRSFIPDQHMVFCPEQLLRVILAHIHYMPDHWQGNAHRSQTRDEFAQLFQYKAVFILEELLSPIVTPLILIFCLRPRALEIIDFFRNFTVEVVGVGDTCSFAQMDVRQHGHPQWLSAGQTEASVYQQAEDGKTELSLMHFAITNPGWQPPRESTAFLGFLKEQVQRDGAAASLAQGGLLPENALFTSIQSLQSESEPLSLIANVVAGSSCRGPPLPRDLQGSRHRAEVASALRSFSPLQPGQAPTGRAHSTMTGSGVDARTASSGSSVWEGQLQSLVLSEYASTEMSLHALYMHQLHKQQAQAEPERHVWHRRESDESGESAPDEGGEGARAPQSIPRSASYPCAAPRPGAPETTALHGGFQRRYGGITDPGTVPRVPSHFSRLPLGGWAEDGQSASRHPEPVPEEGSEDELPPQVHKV
Description: (§1) Whole cell lysates obtained 24 h post-transfection or via ligand stimulation were obtained using RIPA lysis buffer and shook on ice for 15 min. The HEK293T cell lysates were immunoprecipitated with anti-Flag conjugated beads (BioLegend) at 4° C. overnight. […] The beads were washed five times with RIPA lysis buffer, and immunoprecipitates were eluted with 2×SDS loading buffer and subjected to SDS-PAGE gel electrophoresis, followed by immunoblotting. The secondary antibody (Veriblot for IP detection, HRP-conjugated) that only recognized native IgG but not denatured IgG was applied for immunoblotting of endogenous proteins in immunoprecipitates.

[2] = target: T2, Beclin 2 (human, full length) (human, UniProt A8MW95 1-431); test: co-IP with anti-Flag beads and immunoblot; HEK293T cells co-transfected with HA-Beclin 2 and Flag-tagged SNARE or RAB proteins (FIG. 32A)
T2 construct: All tagged and endogenous human forms are kept under this one id; the form used is named under assay; also called BECN2; Flag-Beclin 2
T2 sequence: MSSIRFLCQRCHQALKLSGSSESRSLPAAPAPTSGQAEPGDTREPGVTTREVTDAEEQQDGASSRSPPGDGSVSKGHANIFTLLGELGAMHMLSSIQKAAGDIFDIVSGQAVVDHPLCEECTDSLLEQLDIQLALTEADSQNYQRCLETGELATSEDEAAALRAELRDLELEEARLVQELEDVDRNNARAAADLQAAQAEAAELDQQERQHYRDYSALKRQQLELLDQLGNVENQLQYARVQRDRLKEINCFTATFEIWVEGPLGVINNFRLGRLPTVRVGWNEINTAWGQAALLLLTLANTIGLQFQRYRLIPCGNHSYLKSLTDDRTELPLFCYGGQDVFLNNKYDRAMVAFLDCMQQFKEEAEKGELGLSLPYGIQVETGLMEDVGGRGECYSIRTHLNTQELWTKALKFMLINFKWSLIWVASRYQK
Description: as §1

[3] = target: NLRP3 (mouse, endogenous in BMDMs) (mouse, UniProt Q8R4B8 1-1033); test: endogenous co-IP; WT and Becn2 KO BMDM lysates (untreated or LPS 3 h) immunoprecipitated with ATG9A antibodies, immunoblot (FIG. 30F)
[4] = target: B2; test: as above
[5] = target: T2, Beclin 2 (human, full length); test: co-IP with anti-Flag beads and immunoblot; HEK293T cells co-transfected with HA-Beclin 2 and a Flag-tagged plasmid (FIG. 25A)
[6] = target: B2; test: endogenous co-IP; BMDM lysates (untreated or LPS) immunoprecipitated with MEKK3 antibodies, immunoblot (FIG. 12D)
ATG9A (human) [7] = target: T1, ATG9A (human); test: co-IP with anti-Flag beads; WT, BECN2 KO and ULK1 KO HEK293T cells co-transfected with HA-ATG9A and Flag-AIM2 (FIG. 30D)
Description: Pearson's correlation coefficient for colocalization was analyzed using Image J Coloc 2. Graph represents mean±s.e.m. (at least 30 cells were analyzed per condition). Representative images showing the colocalization were obtained using confocal microscopy. Scale bar: 5 μm. […] Pearson's correlation coefficient for colocalization was analyzed using Image J Coloc 2. Graph represents mean±s.e.m. (at least 30 cells were analyzed per condition). Representative images showing the colocalization were obtained using confocal microscopy. Scale bar: 5 μm. […] Data are representative of at least three independent experiments. […] MVBs, multivesicular bodies.

Sequence of NLRP3 (mouse, endogenous in BMDMs) (Q8R4B8 whole entry): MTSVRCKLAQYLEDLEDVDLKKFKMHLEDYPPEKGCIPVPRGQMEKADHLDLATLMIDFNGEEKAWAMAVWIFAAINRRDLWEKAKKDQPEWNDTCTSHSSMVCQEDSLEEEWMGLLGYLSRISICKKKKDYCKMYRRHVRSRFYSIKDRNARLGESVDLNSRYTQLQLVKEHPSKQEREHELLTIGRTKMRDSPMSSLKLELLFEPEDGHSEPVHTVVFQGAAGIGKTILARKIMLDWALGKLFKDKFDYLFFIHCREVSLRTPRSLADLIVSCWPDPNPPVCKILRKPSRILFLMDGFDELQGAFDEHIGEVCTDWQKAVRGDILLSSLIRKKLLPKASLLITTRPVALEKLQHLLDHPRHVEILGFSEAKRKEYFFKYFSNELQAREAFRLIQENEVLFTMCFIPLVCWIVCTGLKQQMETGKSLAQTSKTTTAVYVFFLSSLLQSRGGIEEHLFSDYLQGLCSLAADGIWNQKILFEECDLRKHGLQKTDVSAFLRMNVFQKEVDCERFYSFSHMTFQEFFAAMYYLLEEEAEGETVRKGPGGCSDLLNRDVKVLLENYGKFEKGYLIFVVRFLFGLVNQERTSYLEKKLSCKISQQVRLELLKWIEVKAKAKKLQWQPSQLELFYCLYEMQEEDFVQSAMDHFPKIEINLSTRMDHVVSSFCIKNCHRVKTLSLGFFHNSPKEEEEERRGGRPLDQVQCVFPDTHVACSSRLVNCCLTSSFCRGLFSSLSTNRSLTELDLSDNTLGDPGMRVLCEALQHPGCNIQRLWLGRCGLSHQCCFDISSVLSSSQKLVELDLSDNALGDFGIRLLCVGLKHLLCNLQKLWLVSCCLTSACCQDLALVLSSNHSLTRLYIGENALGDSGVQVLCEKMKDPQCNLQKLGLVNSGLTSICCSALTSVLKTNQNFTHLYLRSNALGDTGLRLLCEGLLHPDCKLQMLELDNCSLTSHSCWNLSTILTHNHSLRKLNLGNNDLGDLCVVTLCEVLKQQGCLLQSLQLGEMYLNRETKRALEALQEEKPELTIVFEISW

Binder: B2
binding result [3]: binds

B5: MEKK3 (mouse, endogenous in BMDMs) (enzyme, UniProt Q61084 1-626, looked up)
chain: MDEQEALDSIMKDLVALQMSRRTRLSGYETMKNKDTGHPNRQSDVRIKFEHNGERRIIAFSRPVRYEDVEHKVTTVFGQPLDLHYMNNELSILLKNQDDLDKAIDILDRSSSMKSLRILLLSQDRNHTSSSPHSGVSRQVRIKPSQSAGDINTIYQAPEPRSRHLSVSSQNPGRSSPPPGYVPERQQHIARQGSYTSINSEGEFIPETSEQCMLDPLSSAENSLSGSCQSLDRSADSPSFRKSQMSRARSFPDNRKECSDRETQLYDKGVKGGTYPRRYHVSVHHKDYNDGRRTFPRIRRHQGNLFTLVPSSRSLSTNGENMGVAVQYLDPRGRLRSADSENALTVQERNVPTKSPSAPINWRRGKLLGQGAFGRVYLCYDVDTGRELASKQVQFDPDSPETSKEVSALECEIQLLKNLQHERIVQYYGCLRDRAEKILTIFMEYMPGGSVKDQLKAYGALTESVTRKYTRQILEGMSYLHSNMIVHRDIKGANILRDSAGNVKLGDFGASKRLQTICMSGTGIRSVTGTPYWMSPEVISGEGYGRKADVWSLGCTVVEMLTEKPPWAEYEAMAAIFKIATQPTNPQLPSHISEHGRDFLRRIFVEARQRPSAEELLTHHFAQLVY
notes: Endogenous protein in mouse BMDM lysates; also called Map3k3
binding result [6]: binds

B6: AIM2 (human, full length) (other, UniProt O14862 1-343, looked up)
chain: MESKYKEILLLTGLDNITDEELDRFKFFLSDEFNIATGKLHTANRIQVATLMIQNAGAVSAVMKTIRIFQKLNYMLLAKRLQEEKEKVDKQYKSVTKPKPLSQAEMSPAASAAIRNDVAKQRAAPKVSPHVKPEQKQMVAQQESIREGFQKRCLPVMVLKAKKPFTFETQEGKQEMFHATVATEKEFFFVKVFNTLLKDKFIPKRIIIIARYYRHSGFLEVNSASRVLDAESDQKVNVPLNIIRKAGETPKINTLQTQPLGTIVNGLFVVQKVTEKKKNILFDLSDNTGKMEVLGVRNEDTMKCKEGDKVRLTFFTLSKNGEKLQLTSGVHSTIKVIKAKKKT
notes: also called Flag-AIM2; GFP-AIM2
binding result (ATG9A (human) [7]): binds

Results, then the binder that gave them:

binding result (ATG9A (human) [1]): binds
binding result [2]: binds
B1: SEC22A (other, human, UniProt Q96IW7 1-307, looked up)
chain: MSMILSASVIRVRDGLPLSASTDYEQSTGMQECRKYFKMLSRKLAQLPDRCTLKTGHYNINFISSLGVSYMMLCTENYPNVLAFSFLDELQKEFITTYNMMKTNTAVRPYCFIEFDNFIQRTKQRYNNPRSLSTKINLSDMQTEIKLRPPYQISMCELGSANGVTSAFSVDCKGAGKISSAHQRLEPATLSGIVGFILSLLCGALNLIRGFHAIESLLQSDGDDFNYIIAFFLGTAACLYQCYLLVYYTGWRNVKSFLTFGLICLCNMYLYELRNLWQLFFHVTVGAFVTLQIWLRQAQGKAPDYDV

binding result [4]: binds
B3: AIM2 (mouse, endogenous in BMDMs) (other, UniProt Q91VJ1 1-354, looked up)
chain: MESEYREMLLLTGLDHITEEELKRFKYFALTEFQIARSTLDVADRTELADHLIQSAGAASAVTKAINIFQKLNYMHIANALEEKKKEAERKLMTNTKKRGTQKVENRSQAENCSAASATRSDNDFKEQAATEVCPQAKPQKKQMVAEQEAIREDLQKDPLVVTVLKAINPFECETQEGRQEIFHATVATETDFFFVKVLNAQFKDKFIPKRTIKISNYLWHSNFMEVTSSSVVVDVESNHEVPNNVVKRARETPRISKLKIQPCGTIVNGLFKVQKITEEKDRVLYGIHDKTGTMEVLVLGNPSKTKCEEGDKIRLTFFEVSKNGVKIQLKSGPCSFFKVIKAAKPKTDMKSVE

binding result [5]: binds
B4: caspase 1 (enzyme, human, UniProt P29466 1-404, looked up)
chain: MADKVLKEKRKLFIRSMGEGTINGLLDELLQTRVLNKEEMEKVKRENATVMDKTRALIDSVIPKGAQACQICITYICEEDSYLAGTLGLSADQTSGNYLNMQDSQGVLSSFPAPQAVQDNPAMPTSSGSEGNVKLCSLEEAQRIWKQKSAEIYPIMDKSSRTRLALIICNEEFDSIPRRTGAEVDITGMTMLLQNLGYSVDVKKNLTASDMTTELEAFAHRPEHKTSDSTFLVFMSHGIREGICGKKHSEQVPDILQLNAIFNMLNTKNCPSLKDKPKVIIIQACRGDSPGVVWFKDSVGVSGNLSLPTTEEFEDDAIKKAHIEKDFIAFCSSTPDNVSWRHPTMGSVFIGRLIEHMQEYACSCDVEEIFRKVRFSFEQPDGRAQMPTTERVTLTRCFYLFPGH
notes: also called Flag-caspase 1
